According to patent US20180230233A1 (Genentech, published 2018):
Changes are numbered by the printed parent chain. In names and notes the source's numbering stands.

B1: huE104.v10 IgG1 (chimeric light chain) (antibody, V domains shown)
VH: EVQLVESGPGLVKPSETLSLTCTVSRFSLIGYAITWIRQPPGKGLEWIGGISSAATTFYSSWAKSRVTISRDTSKNQVSLKLSSVTAADTAVYYCARDPRGYGAALDRLDLWGQGTLVTVSS
VL: AAVLTQTPASVSAAVGGTVSISCQSIKSVYNNRLGWYQQKPGQPPKLLIYETSILTSGVPSRFKGSGSETQFTLTISDVQADDAATYFCAGGFDRSGDTTFGGGTEVVVK
B2: huE104.v9 IgG1 (chimeric heavy chain) (antibody, V domains shown)
VH: QSLEESGGGLFKPTDTLTLTCTVSRFSLIGYAITWVRQSPENGLEWIGGISSAATTFYSSWAKSRSTITRNTNENTVTLKMTSLTAADTATYFCARDPRGYGAALDRLDLWGQGTLVTVSS
VL: DIQMTQSPSSLSASVGDRVTITCQSIKSVYNNRLGWYQQKPGKAPKLLIYETSILTSGVPSRFSGSGSGTDFTLTISSLQPEDFATYYCAGGFDRSGDTTFGQGTKVEIK
notes: also called E104.v9 chimeric clone
B3: huE104.v4 IgG1 (antibody, V domains shown)
VH: EVQLVESGGGLVQPGGSLRLSCAVSRFSLIGYAITWVRQAPGKGLEWIGGISSAATTFYSSWAKSRSTISRDTSKNTVYLQMNSLRAEDTAVYFCARDPRGYGAALDRLDLWGQGTLVTVSS
VL: B2 VL
B4: huE104.v3 IgG1 (antibody, V domains shown)
VH: B1 VH with I37V, V67S, Y94F
VL: B2 VL
B5: huE104.v11 IgG1 (antibody, V domains shown)
VH: B1 VH with R71V
VL: B2 VL
notes: also called v11 (of huE104)
B6: huE104.v5 IgG1 (antibody, V domains shown)
VH: B1 VH with R71V, V78F
VL: B2 VL with I2A, M4L, A44P, G69E, Y88F
B7: huE104.v6 IgG1 (antibody, V domains shown)
VH: B1 VH
VL: B2 VL with I2A, M4L, A44P, G69E, Y88F
B8: huE104.v7 IgG1 (antibody, V domains shown)
VH: B1 VH with I37V, V67S, Y94F
VL: B2 VL with I2A, M4L, A44P, G69E, Y88F
B9: huE104.v8 IgG1 (antibody, V domains shown)
VH: B3 VH
VL: B2 VL with I2A, M4L, A44P, G69E, Y88F
B10: huE104.v12 IgG1 (antibody, V domains shown)
VH: B1 VH with V78F
VL: B2 VL
notes: also called v12 (of huE104)
B11: hu31A.v14 IgG1 (antibody, V domains shown)
VH: EVQLVESGGGLVQPGGSLRLSCAASGFTFSDYGMVWVRQAPGKGLEWVAFISSGSSTVYYADTMKGRFTISRDNSKNTLYLQMNSLRAEDTAVVYCTRRDNYDWYFDVWGQGTLVTVSS
VL: DIQMTQSPSSLSASVGDRVTITCSASSSVTYMYWYQQKPGKSPKPWIYRTSDLASGVPSRFSGSGSGTDFTLTISSLQPEDFATYYCQHYHSYPLTFGQGTKVEIK
B12: hu31A.v10 IgG1 (antibody, V domains shown)
VH: B11 VH with V94Y, D100N, N101Y, Y102D
VL: B11 VL with S42A, P45L, W46L
notes: also called v10 (of hu31A)
B13: hu31A.v7 IgG1 (antibody, V domains shown)
VH: B11 VH with D31S, Y32F, V35H, T97A
VL: B11 VL with S42A, P45L, W46L
notes: also called v7 (of hu31A)
B14: hu31A.v12 IgG1 (antibody, V domains shown)
VH: B11 VH with V94Y, D100N, N101Y, Y102D
VL: B11 VL with M4L, F70Y
notes: also called v12 (of hu31A)
B15: hu31A.v2 IgG1 (antibody, V domains shown)
VH: B11 VH with A49G, T97A
VL: B11 VL
notes: also called v2 (of hu31A)
B16: hu31A.v6 IgG1 (antibody, V domains shown)
VH: B11 VH with T97A
VL: B11 VL with M4L, F70Y
notes: also called v6 (of hu31A)
B17: hu31A.v8 IgG1 (antibody, V domains shown)
VH: B11 VH with D31S, Y32F, V35H, T97A
VL: B11 VL
notes: also called v8 (of hu31A)
B18: hu31A.v4 IgG1 (antibody, V domains shown)
VH: B11 VH with T97A
VL: B11 VL with S42A, P45L, W46L
notes: also called v4 (of hu31A)
B19: hu31A.v13 IgG1 (antibody, V domains shown)
VH: B11 VH
VL: B11 VL with S42A, P45L, W46L
B20: hu31A.v3 IgG1 (antibody, V domains shown)
VH: B11 VH with A49G, T97A
VL: B11 VL with M4L, F70Y
notes: also called v3 (of hu31A)
B21: hu31A.v1 IgG1 (antibody, V domains shown)
VH: B11 VH with A49G, T97A
VL: B11 VL with S42A, P45L, W46L
notes: also called v1 (of hu31A)
B22: hu31A.v5 IgG1 (antibody, V domains shown)
VH: B11 VH with T97A
VL: B11 VL
notes: also called v5 (of hu31A)
B23: hu31A.v9 IgG1 (antibody, V domains shown)
VH: B11 VH with D31S, Y32F, V35H, T97A
VL: B11 VL with M4L, F70Y
notes: also called v9 (of hu31A)
B24: hu31A.v15 IgG1 (antibody, V domains shown)
VH: B11 VH
VL: B11 VL with M4L, F70Y
B25: hu31A.v11 W100Y (antibody, name in Kabat numbering, V domains shown)
VH: B11 VH with V94Y, D100N, N101Y, Y102D, W104Y
VL: B11 VL
notes: Position 100 is Kabat numbering; also called W100Y variant
B26: hu31A.v11 W100R (antibody, name in Kabat numbering, V domains shown)
VH: B11 VH with V94Y, D100N, N101Y, Y102D, W104R
VL: B11 VL
notes: also called W100R variant
B27: hu31A.v11 W100V (antibody, name in Kabat numbering, V domains shown)
VH: B11 VH with V94Y, D100N, N101Y, Y102D, W104V
VL: B11 VL
notes: Position 100 is Kabat numbering; also called W100V variant
B28: hu31A.v11 W100L (antibody, name in Kabat numbering, V domains shown)
VH: B11 VH with V94Y, D100N, N101Y, Y102D, W104L
VL: B11 VL
notes: also called W100L variant

target: T1, recombinant His-tagged human tryptase beta 1 monomer (human, UniProt Q15661 31-275); assay: SPR (BIAcore T200); IgG1 captured by anti-human Fc, His-tagged monomer injected
T1 construct: also called His6-tagged tryptase monomer; human tryptase b1 monomer
Method: (§1) The assay can use a BIAcore® T200 or an equivalent device. Briefly, BIAcore® Series S CM5 sensor chips (or equivalent sensor chips) are immobilized with monoclonal mouse anti-human IgG (Fc) antibody and anti-tryptase antibodies are subsequently captured on the flow cell. Serial 3-fold dilutions of the human tryptase beta 1 monomer are injected at a flow rate of 30 μl/min. Each sample is analyzed with 3 min association and 10 min dissociation. The assay is performed at 25° C. After each injection, the chip is regenerated using 3 M MgCl₂. Binding response is corrected by subtracting the response units (RU) from a flow cell capturing an irrelevant IgG at similar density. A 1:1 Languir model of simultaneous fitting of kₒₙ and koff is used for kinetics analysis.
(§2) In this experiment, all the humanized variants were expressed as IgG by transient transfection of 293 cells. IgG was purified with protein G affinity chromatography. The affinity of each variant for recombinant His-tagged human tryptase beta 1 monomer (SEQ ID NO: 128) was determined by SPR analysis using a BIAcore® T200. BIAcore® Series S CM5 sensor chips were immobilized with monoclonal mouse anti-human IgG (Fc) antibody (Human antibody capture kit from GE Healthcare) and anti-tryptase variants were subsequently captured on each flow cell. Serial 3-fold dilutions of the human tryptase beta 1 monomer were injected at a flow rate of 30 μl/min. Each sample was analyzed with 3 min association and 10 min dissociation. After each injection, the chip was regenerated using 3 M MgCl₂. Binding response was corrected by subtracting the response units (RU) from a flow cell capturing an irrelevant IgG at similar density. A 1:1 Languir model of simultaneous fitting of kₒₙ and koff was used for kinetics analysis.

T1 sequence (Q15661 other isoform, or with tags, fused parts or gaps): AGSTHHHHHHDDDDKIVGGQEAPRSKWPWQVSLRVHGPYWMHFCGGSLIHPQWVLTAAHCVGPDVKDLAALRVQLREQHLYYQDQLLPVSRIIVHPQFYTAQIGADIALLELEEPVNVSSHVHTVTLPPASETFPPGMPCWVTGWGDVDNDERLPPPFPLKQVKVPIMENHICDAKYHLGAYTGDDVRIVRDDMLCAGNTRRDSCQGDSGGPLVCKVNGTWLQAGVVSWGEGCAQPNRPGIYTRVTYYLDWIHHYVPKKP

Row | Kd | Binder
1 | 0.26 nM | B1
2 | 0.24 nM | B2
3 | 0.44 nM | B3
4 | 0.21 nM | B4
5 | 0.32 nM | B5
6 | 0.18 nM | B6
7 | 0.14 nM | B7
8 | 0.25 nM | B8
9 | 0.24 nM | B9
10 | 0.12 nM | B10
11 | 1.34 nM | B11
12 | 1.19 nM | B12
13 | 2.06 nM | B13
14 | 0.43 nM | B14
15 | 0.74 nM | B15
16 | 1.65 nM | B16
17 | 0.94 nM | B17
18 | 11.8 nM | B18
19 | 9.65 nM | B19
20 | 0.79 nM | B20
21 | 4.04 nM | B21
22 | 1.68 nM | B22
23 | 0.94 nM | B23
24 | 1.32 nM | B24

target: T1, recombinant His-tagged human tryptase …; assay: SPR, tryptase beta 1 monomer
Method: as §1, §2

Row | KD as fold increase compared to hu31A.v11 wild type | Binder
25 | 234 fold | B25
26 | 54 fold | B26
27 | 821 fold | B27
28 | 2410 fold | B28

target: recombinant human tryptase beta 1 tetramer (wild type, active) (human, UniProt Q15661 31-275); assay: cell-based or functional assay
Sequence (Q15661 31-275): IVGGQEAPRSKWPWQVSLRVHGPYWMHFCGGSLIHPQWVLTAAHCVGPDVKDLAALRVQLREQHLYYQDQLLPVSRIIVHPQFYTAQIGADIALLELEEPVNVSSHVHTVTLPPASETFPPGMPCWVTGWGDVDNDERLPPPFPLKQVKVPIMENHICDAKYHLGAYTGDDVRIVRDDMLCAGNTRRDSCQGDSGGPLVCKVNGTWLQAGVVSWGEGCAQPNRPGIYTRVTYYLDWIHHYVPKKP

Row | IC50 as fold increase compared to hu31A.v11 wild type | Binder
29 | 3.46 fold | B25
